Data: EP4717710A1 (UIF (University Industry Foundation), Yonsei University, dated 2026)
Residue numbers refer to the chain shown, from its start. In names and notes the source's numbering stands. One block for each binder: values may come before it.

Columns and labels:
[1] = biological target: T1, IL-4R (recombinant protein) (human, UniProt P24394 26-232, biotinylated (Acro Biosystems ILR-H82E9) in the ELISA); experiment: ELISA, periplasmic extract captured by anti-c-Myc, 50 nM biotinylated IL-4R against MBP
T1 construct: Bought recombinant IL-4R; also called IL-4 receptor; IL-4R molecule
T1 sequence (looked up): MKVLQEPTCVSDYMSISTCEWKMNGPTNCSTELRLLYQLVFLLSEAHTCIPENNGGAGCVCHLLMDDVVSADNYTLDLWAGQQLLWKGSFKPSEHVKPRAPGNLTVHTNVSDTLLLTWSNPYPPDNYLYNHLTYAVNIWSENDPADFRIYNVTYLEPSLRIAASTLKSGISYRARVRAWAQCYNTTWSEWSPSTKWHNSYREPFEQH

[2] = biological target: T1, IL-4R (recombinant protein); experiment: SPR
[3] = biological target: T2, IL-4R on cells (human, UniProt P24394 26-825); experiment: cell-based or functional assay
T2 sequence (looked up): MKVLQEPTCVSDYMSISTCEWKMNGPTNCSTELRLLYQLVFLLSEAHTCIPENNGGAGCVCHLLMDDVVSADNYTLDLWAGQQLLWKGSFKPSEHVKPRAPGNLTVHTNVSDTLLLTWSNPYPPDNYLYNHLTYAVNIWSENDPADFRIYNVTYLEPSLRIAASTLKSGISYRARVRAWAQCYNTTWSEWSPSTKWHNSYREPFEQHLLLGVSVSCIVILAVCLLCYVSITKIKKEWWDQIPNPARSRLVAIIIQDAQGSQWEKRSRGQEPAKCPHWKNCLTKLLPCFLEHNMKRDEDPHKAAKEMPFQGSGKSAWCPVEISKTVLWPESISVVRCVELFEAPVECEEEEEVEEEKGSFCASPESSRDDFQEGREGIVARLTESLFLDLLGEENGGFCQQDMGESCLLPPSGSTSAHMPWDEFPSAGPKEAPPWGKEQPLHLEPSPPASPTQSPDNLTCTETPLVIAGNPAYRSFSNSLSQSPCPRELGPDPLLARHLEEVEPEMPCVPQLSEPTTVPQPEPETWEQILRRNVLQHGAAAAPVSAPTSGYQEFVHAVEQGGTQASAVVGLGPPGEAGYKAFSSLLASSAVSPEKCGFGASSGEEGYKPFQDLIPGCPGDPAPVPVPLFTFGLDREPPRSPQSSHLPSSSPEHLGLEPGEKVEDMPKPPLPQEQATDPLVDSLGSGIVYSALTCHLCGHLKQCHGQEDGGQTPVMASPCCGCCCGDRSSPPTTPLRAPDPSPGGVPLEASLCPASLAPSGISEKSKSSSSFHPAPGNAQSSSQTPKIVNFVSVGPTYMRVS

fold-change of OD values for IL-4R and MBP [1]: > 1.7 fold
Kd [2]: 1420 nM
IL-4 signal blocking in STAT6-luciferase reporter cells (667 pM IL-4, 24 hours) [3]: ~2 fold concentration relative to dupilumab
B1: H5 nanobody (VHH)
VHH: QVQLVESGGGSVQAGGSLRLSCAASGSISSITYLGWFRQAPGKEREGVAALSTSSGTTYYADSVKGRFTVSLDNAKNTVYLQMNSLKPEDTALYYCAAADKGREYTLARAKYWYWGQGTQVTVSA
notes: Synthetic nanobody (sybody, convex scaffold) expressed from pSBinit in E. coli and purified on TALON resin; It was detected with anti-Myc, so the tested protein probably carries Myc/His tags; also called WT H5; H5 wild-type nanobody

Kd [2]: 1.06 nM
B2: H5 E104R (VHH)
VHH: B1 VHH with E104R
notes: also called H5 E104R mutant

Kd [2]: 708 nM
B3: H5 A110Y (VHH)
VHH: B1 VHH with A110Y
notes: also called H5 A110Y mutant
